Measurements as given in paper PMC10403523.

Columns and labels:
[1] = test system: yeast SWI/SNF complex, Snf2 delta-AT (Saccharomyces cerevisiae); experiment: EMSA; settings: apparent KD, Kd EMSA: 6.7 nM DNA or nucleosome, 1.3-23 nM SWI/SNF, 4% native PAGE (79:1), Methods: prebinding 30 C, 15 min, gel in 0.5x TBE, binding buffer, salt and pH not …
[2] = test system: yeast SWI/SNF complex, Snf2 delta-AT (Saccharomyces cerevisiae); experiment: competition; settings: EMSA competition against 601 DNA; Kd EMSA: 6.7 nM DNA or nucleosome, 1.3-23 nM SWI/SNF, 4% native PAGE (79:1); Methods: prebinding 30 C, 15 min, gel in 0.5x …; binding buffer, salt and pH not

29N59 nucleosome
Kd ([1]; 6.7 nM nucleosome, recombinant Xenopus laevis histone octamer): 20.5 nM

235 bp 601 DNA
Kd ([1]; 6.7 nM DNA): 12.8 nM

pUC19 plasmid
Ki [2]: 25 nM
